# Source: the DeepSol protein solubility set
# Assay: soluble on expression in E. coli; label from the status in PepcDB or PDB records
row,Sequence,soluble on expression in E. coli
1,SLAQLDKNDPARGVLAAIAANASKIAEYDPRVRADEYDSVHQMRVATRELRSHLQTFEGILGGEDYLNLEKELKVLANILGRARDAEVVEERLSNLINTEVGDSIEEETKKELLEDLGAEYRREHERVVRALDNDRYTDLLQALENLLVDPPLITEVEEPEATEAPESAETTESTDVSEATEEADAEAESVEEATEQEESADAPESADLDALDEEYSPGSQAPVEEPKEPKKVDAALVLLEHLDKAHVKLVKLEKKARSQWDDLSIPMLEREENFHNLRKAAKKLRYSAEAVGKATTVETKKLYKACSGLQSVLGDYQDAITSRNELLRRAQVARRQGRDTFAYGILYQHEQTLSREYLTGYSDAFKSVEKAYAKLAEDTAKRSKKNKRK,soluble
2,MTNIEILENMLKLQQKLNDETNGLNWENGYTKEGKLISWRRCIYMECAELIDSFTWKHWKNISSLTNWENVRIEIVDIWHFILSLLLEEYRDKNNKDFKAIATEVNAVSVFQDFCKEEEYPNEGDIYGILNDIELIIHKCSGFGFNLGELLSTYFTLAIKCGLNLEILYKTYIGKNVLNIFRQNNGYKDGSYKKTWNGKEDNEVLAQILEQELDFDTIYKKLEECYKKA,soluble
3,VFALSNNLNRVNACMDGFLARIRSHVDAHAPELRSLFDTMAAEARFARDWLSEDLARLPVGAALLEVGGGVLLLSCQLAAEGFDITAIEPTGEGFGKFRQLGDIVLELAAARPTIAPCKAEDFISEKRFDFAFSLNVMEHIDLPDEAVRRVSEVLKPGASYHFLCPNYVFPYEPHFNIPTFFTKELTCRVMRHRIEGNTGMDDPKGVWRSLNWITVPKVKRFAAKDATLTLRFHRAMLVWMLERALTDKEFAGRRAQWMVAAIRSAVKLRVHHLAGYVPATLQPIMDVRLTKR,not soluble
4,MNWYEKLSEYFPIEEMKSKAHMEALLKERSDIYHKDEGKHHILMFAEFDSFIFVDYLYVSKDARGQGLGGKLIAKLKKKNKPILLEVEPVDEDDTDTEKRLRFYQREHFKHAQSIGYRRRSLATNEVNKIEILYWSPKTESEEEILEAMKQTYENIHTYKDEKWYGESYEKTDEVLEIIDEEKQKNIFDQLS,not soluble
5,MKTENFRSYNQRVYSETLNDGLKITLIPKKDFHSVFAALFVNAGATDQQIVDEKGETIIFPSGTAHFAEHKMFEKKNGDVSEIFSAYGAFSNAYTSQSQTVYYFQGTENIDQSIKLLLQFVQEPYYTEASVAKEQGIIGQEISMYQDMPDWVSSFGLMKNLYRKQPLGEDIAGNIDSIETINADLLYKFHRYFYQPSNLQLKIAGNIDPTGLLALLKQTQARLTRPRINFSRVNRFNAKIPVKKSAEQNMPVALPLLAAGIKGSGNLPDIDTAIDLSFSSDLILDIYFSDSSDWYLRNYNQGFLNDDFSAQADVGRNYNFITFTGHSENKELFKEIYSQLKNISYSQELEKEFQWQKKASLGELSMSLDQLENNVFTIADVFNTDVNIFRVIEKLRELTYRKAVNLFESYYNLDSFSSFCVNPVE,not soluble
6,MSVVALVLAAGSSVRFGADKRRSLMADGRSLLVHSVESACAVFDDVRVVLREGERGVDLGLPARCRVVSSPNFTLGMGHSLAAGAASLADSEAQAVAILLGDMPWVASATLDLLAREASGSTIVLPCHAGRQGHPVLFGRDFWPALARLKGDEGARSVVKANPAVCVRLEVQDAGVLQDVDRPDAVRPLEHHHHHH,soluble
7,MGVFLFDRDCRYTVAGGGEISSAGLTPADFEGSKPHDLFSEAIADELEHYYREALDGHSHSFEQQYRGKHYRVQTVPVRDDNGEVISGLAVSEDVTARRERQRTLERQNERLREFAGVVSHDLRNPLNVAQGRLKLARAECDSEHLDNVAAAIERSNRLIDDLLTLASSGDEVTETASLDLGAVVDGCWQNVPTDGATLVVRSEQTVVADRGRLEQLLENLVRNAVEHAFPQSEVSLDAAEGDASDLTVTVGALEDGFYVEDTGPGIPPEERDDVFKGGYSTAADGTGFGLRIVRQIAEAHGWTVTVADGEHGGARFEVRGIETT,not soluble
8,MKQSKIIVAGIGPGSEQDITPAVLAAVREADVVVGYKYYFRFIRDFVRPDAECIDTGMKRERARAEQAFEYAEQGKTVCVISSGDAGIYGMTPLIYEMKRERQSNVEIIALPGISAFQKAASLLGAPIGHDFCVISLSDLMTPWERIERRILAAAQADFVTAVYNPKSDGRYWQIYRLREIFLREGRSPETPVGYVRQAGREEQEIHITTLAAFDPETVDMFTVVLIGNSQTYTFNQNIITPRGYYRETRSEATGIGQDIMIRSFRTIETELKNRDIPLDRKWALLHAIHTTADFEMERLLYTDPNAVASLYDAIRTGNLRTIVTDVTMAASGIRKGALQRLGVEVKCYLNDERVAEMATSKGITRTQAGIRLAVEEHPDALFVFGNAPTALMELCDLIRKEKAQPAGIVAAPVGFVHVEESKHMTKPFTHIPKLIVEGRKGGSNLAATLVNAILCYPDAEQLRPGRDV,soluble
9,MAWGGLCNPPLCFGFSGCDMNVREYYEHALAERGYQPDEAQLQAVERLQRYYDEWVRFKALRSNALKKLLNRPDVPRGVYLWGGVGRGKSFLMDAFYATVPVVRKTRLHFHEFMRGVHRELEEVKGTQDPLDEVARRLARRYRLICFDEFHVSDVADAMILYRLLLKLFEHGTSFVMTSNYEPSTLYPDGLHRDRILPAIALIQGRMDVLNVDAGIDYRRRSLEQVQCYHTPLDAQARQALEHAFAQLSDTAPQDPVLHIEHREIRAQALAGSVVWFDFATLCGGPRSQNDYLELANRFHAVILSDVPRMGPRQASEARRFTWLIDVFYDHKVKLIMSAEVEPEQLYTEGALANEFHRTVSRILEMQSREYLEAERRLAVTLAAALEHHHHHH,not soluble
10,MKIIKRSGSEVTFDISKIMAAVSKANMEVVHSERLSEEQIETISNNVESICKEMNRSLSVEEIQDLVENQIMNLRAFAVARKYITYRYKRALVRKSNST,not soluble
11,MSDSPKNAPRITDEADVVLIGAGIMSSTLGAMLRQLEPSWTQIVFERLDGPAQESSSPWNNAGTGHSALCELNYTPEVKGKVEIAKAVGINEKFQVSRQFWSHLVEEGVLSDPKEFINPVPHVSFGQGADQVAYIKARYEALKDHPLFQGMTYADDEATFTEKLPLMAKGRDFSDPVAISWIDEGTDINYGAQTKQYLDAAEVEGTEIRYGHEVKSIKADGAKWIVTVKNVHTGDTKTIKANFVFVGAGGYALDLLRSAGIPQVKGFAGFPVSGLWLRCTNEELIEQHAAKVYGKASVGAPPMSVPHLDTRVIEGEKGLLFGPYGGWTPKFLKEGSYLDLFKSIRPDNIPSYLGVAAQEFDLTKYLVTEVLKDQDKRMDALREYMPEAQNGDWETIVAGQRVQVIKPAGFPKFGSLEFGTTLINNSEGTIAGLLGASPGASIAPSAMIELLERCFGDRMIEWGDKLKDMIPSYGKKLASEPALFEQQWARTQKTLKLEEALEHHHHHH,not soluble
12,LITMNYNSPTIGMHQNLTIILPEDVTFFDSSTTAKHLKSMLLLHGLSSDETTYIRYTSIERYANEHQLAIIMPNVDHSGYANMVYGHSYYDYILEIYEYVHQILPLSRKREDNFIAGHSMGGYGTIKFALTQSDKFAKAAPLSAVFEAQRFIDLDWTDFSPQSITGNNTQIKGTELDTYYLLDQAIDANVDIPELFIMCGKEDFLYHDNLQFIETLNKKGVSYKFEDGPGNHDYAYWDRAIKRAIEWFVQ,not soluble
13,MSLILVTGHRGFIGSHIYSYFNGNSEVYGFDIGDKLEDRRYDVIIHMAARGLIRKSIEFPYDYFQDDLSLVVRFLELARKNDSVFIFPSSGSTAEPTNPYSLAKKNAEEWIRLYGKLYGLKYYILRFFNIYGDGAKKGAVYLFTKAALSGEEAIVYGDGSHIRDFLYVGDVPITIERILNEKYRTGEYEVGSGKGTSVNDLISLIEKVTGKKIRTRHEDYIVPEASELVAKNTIVKNPTPLEVGVERVMEFILKDNEGHHHHHH,soluble
14,MGSDKIHHHHHHMSKPSRWPLTADGIRFITPHVLVKRLQNHALAKGLFVTAMGYYPTASGHAMERKGHPDHILIYCTAGSGFLTMAGKTTEINSGDIFYLPAGSQHSYQASKELPWTLYWLHFDGTLANDFCQHINIVERKFTIGVQPRVIRVFDGISHLRHSSHNLAEFIQGGHQVQALLSYIALLVQQRKPSAINTFDTENLRAMMQEHIHSKLDLDSLAEAAKLSKYHFSKKFKQVTGESPISYFINMKMQRACYLLDSTPRSVKHVASELGYHDTYYFSRLFKKNIGMAPAIYRKAKL,not soluble
